Twelve proteins from patent US11491212 can be followed below.

Chain of Factor X, P00742 (P00742 whole entry, looked up): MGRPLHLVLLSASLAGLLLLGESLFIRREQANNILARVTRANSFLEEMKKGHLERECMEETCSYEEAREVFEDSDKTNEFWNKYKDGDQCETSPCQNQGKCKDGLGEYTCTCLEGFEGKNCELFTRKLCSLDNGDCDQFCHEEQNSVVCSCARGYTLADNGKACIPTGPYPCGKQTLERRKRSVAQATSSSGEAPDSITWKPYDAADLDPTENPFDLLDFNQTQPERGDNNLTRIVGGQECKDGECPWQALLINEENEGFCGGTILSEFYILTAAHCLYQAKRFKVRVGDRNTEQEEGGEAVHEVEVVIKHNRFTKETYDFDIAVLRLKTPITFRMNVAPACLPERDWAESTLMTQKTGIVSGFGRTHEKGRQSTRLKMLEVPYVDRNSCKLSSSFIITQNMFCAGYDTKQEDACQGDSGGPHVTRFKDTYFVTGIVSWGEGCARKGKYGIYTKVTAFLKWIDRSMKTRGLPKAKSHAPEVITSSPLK
Chain of Factor X (FX), P00742 (P00742 whole entry, looked up): as above

B1: FIXa Y155F/T343R/R403E/E410N (protein)
chain 1: not shown
chain 2: not shown
As to B1, in the series with Factor X (FX), P00742, the kcat (s^-1), activation of FX by FIXa in the Xase complex came to 6.6 s⁻¹. In the series with Factor X, P00742, the “% of WT kcat/KM” value worked out at 321% and the kcat/KM stood at 1.5e+08 M⁻¹ s⁻¹.

B2: FIXa Y155F/K247N/N249S/R403E/E410N (protein)
chain 1: not shown
chain 2: not shown
Take B2: the kcat (s^-1), activation of FX by FIXa in the Xase complex with Factor X (FX), P00742 was found to be 2.7 s⁻¹. In the series with Factor X, P00742, the “% of WT kcat/KM” value is listed as 53% and the kcat/KM turned out to be 2.4e+07 M⁻¹ s⁻¹.

B3: FIXa K247N/N249S/R318Y/R338E/T343R (protein)
chain 1: not shown
chain 2: not shown
Turning to B3, in the series with Factor X (FX), P00742, the kcat (s^-1), activation of FX by FIXa in the Xase complex turned out to be 8 s⁻¹. For the same protein, in the series with Factor X, P00742, the “% of WT kcat/KM” value is 840% and the kcat/KM came out at 3.9e+08 M⁻¹ s⁻¹.

B4: FIXa Y155F/R318Y/R338E/T343R (protein)
chain 1: not shown
chain 2: not shown
Regarding B4, the kcat (s^-1), activation of FX by FIXa in the Xase complex with Factor X (FX), P00742 turned out to be 7.9 s⁻¹. Moreover, in the series with Factor X, P00742, the “% of WT kcat/KM” value was 771% and the kcat/KM worked out at 3.6e+08 M⁻¹ s⁻¹.

B5: FIXa Y155F/K247N/N249S/R318Y/R338E/T343R (protein)
chain 1: not shown
chain 2: not shown
As for B5, the kcat (s^-1), activation of FX by FIXa in the Xase complex with Factor X (FX), P00742 was 8.5 s⁻¹. In addition, in the series with Factor X, P00742, the “% of WT kcat/KM” value is 772% and the kcat/KM was 3.6e+08 M⁻¹ s⁻¹.

B6: FIXa R318Y/R338E/T343R (protein)
chain 1: not shown
chain 2: not shown
With B6, the kcat (s^-1), activation of FX by FIXa in the Xase complex with Factor X (FX), P00742 was found to be 4.5 s⁻¹. In addition, in the series with Factor X, P00742, the “% of WT kcat/KM” value was 324% and the kcat/KM was 1.5e+08 M⁻¹ s⁻¹.

B7: FIXa Y155F/K247N/N249S/R318Y/R338E/T343R/E410N (protein)
chain 1: not shown
chain 2: not shown
As to B7, in the series with Factor X, P00742, the “% of WT kcat/KM” value is listed as 1091% and the kcat/KM is 5e+08 M⁻¹ s⁻¹.

B8: FIXa Y155F/K247N/N249S/T343R/E410N (protein)
chain 1: not shown
chain 2: not shown
Regarding B8, the kcat (s^-1), activation of FX by FIXa in the Xase complex with Factor X (FX), P00742 was determined as 7.9 s⁻¹. Besides, in the series with Factor X, P00742, the “% of WT kcat/KM” value worked out at 599% and the kcat/KM stood at 2.8e+08 M⁻¹ s⁻¹.

B9: FIXa Y155F/R318Y/T343R/E410N (protein)
chain 1: not shown
chain 2: not shown
For B9, in the series with Factor X (FX), P00742, the kcat (s^-1), activation of FX by FIXa in the Xase complex came out at 5 s⁻¹. In the series with Factor X, P00742, the “% of WT kcat/KM” value is 326% and the kcat/KM worked out at 1.5e+08 M⁻¹ s⁻¹.

B10: FIXa Y155F/R338E/T343R/E410N (protein)
chain 1: not shown
chain 2: not shown
In the case of B10, in the series with Factor X (FX), P00742, the kcat (s^-1), activation of FX by FIXa in the Xase complex was found to be 6 s⁻¹. Moreover, in the series with Factor X, P00742, the “% of WT kcat/KM” value is on record as 761% and the kcat/KM was determined as 3.5e+08 M⁻¹ s⁻¹.

B11: FIXa K247N/N249S/T343R/R403E/E410N (protein)
chain 1: not shown
chain 2: not shown
Regarding B11, in the series with Factor X (FX), P00742, the kcat (s^-1), activation of FX by FIXa in the Xase complex worked out at 8 s⁻¹. In the series with Factor X, P00742, the “% of WT kcat/KM” value was 285% and the kcat/KM came to 1.3e+08 M⁻¹ s⁻¹.

B12: FIXa Y155F/R318Y/T343R/R403E (protein)
chain 1: not shown
chain 2: not shown
Regarding B12, the kcat (s^-1), activation of FX by FIXa in the Xase complex with Factor X (FX), P00742 stood at 5 s⁻¹. Moreover, in the series with Factor X, P00742, the “% of WT kcat/KM” value came out at 154% and the kcat/KM worked out at 7.1e+07 M⁻¹ s⁻¹.

The kcat/KM is the second-order rate constant that governs catalysis at low substrate concentration.
